The values below come from IntAct's records for PubMed 22960633.

For one experiment, the target named is arl3_mouse Arl3 (UniProt Q9WUL7).
A further experiment has as its target gnat1_human GNAT1 (UniProt P11488).

Chain of arl3_mouse Arl3 (Q9WUL7 whole entry): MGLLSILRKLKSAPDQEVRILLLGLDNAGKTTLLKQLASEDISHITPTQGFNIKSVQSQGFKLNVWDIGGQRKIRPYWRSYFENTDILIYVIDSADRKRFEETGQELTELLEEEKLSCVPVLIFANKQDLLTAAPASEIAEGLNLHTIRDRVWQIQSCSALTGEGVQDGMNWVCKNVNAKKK
Chain of gnat1_human GNAT1 (P11488 whole entry): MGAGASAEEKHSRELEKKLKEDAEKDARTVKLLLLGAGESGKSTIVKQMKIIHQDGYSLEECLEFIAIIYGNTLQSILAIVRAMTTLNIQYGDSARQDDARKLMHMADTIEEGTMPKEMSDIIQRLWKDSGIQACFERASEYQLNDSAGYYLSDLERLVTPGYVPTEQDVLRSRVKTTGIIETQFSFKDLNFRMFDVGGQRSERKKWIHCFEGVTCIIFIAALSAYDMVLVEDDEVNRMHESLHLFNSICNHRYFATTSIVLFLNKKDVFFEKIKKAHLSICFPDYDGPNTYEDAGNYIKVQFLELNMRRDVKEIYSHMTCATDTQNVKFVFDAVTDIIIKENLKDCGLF

On to “Protein unc-119 homolog A (Homo sapiens) (from UniProt Q13432) Y194A”, for which the “effect of a mutation on the interaction” value with arl3_mouse Arl3 and in the experiment with gnat1_human GNAT1 was “decreasing interaction” each time.
